Test results published in paper PMC10456876.
Where a chain is given by its changes, count along the chain named. In names and notes the source's numbering stands.

B1: wild-type MBP-tagged TRF1core (TRF1-TIN2-TPP1), P54274;Q9BSI4 S434D; S435D; S437D (protein)
chain 1: MAEDVSSAAPSPRGCADGRDADPTEEQMAETERNDEEQFECQELLECQVQVGAPEEEEEEEEDAGLVAEAEAVAAGWMLDFLCLSLCRAFRDGRSEDFRRTRNSAEAIIHGLSSLTACQLRTIYICQFLTRIAAGKTLDAQFENDERITPLESALMIWGSIEKEHDKLHEEIQNLIKIQAIAVCMENGNFKEAEEVFERIFGDPNSHMPFKSKLLMIISQKDTFHSFFQHFSYNHMMEKIKSYVNYVLSEKSSTFLMKAAAKVVESKRTRTITSQDKPSGNDVEMETEANLDTRKSVSDKQSAVTESSEGTVSLLRSHKNLFLSKLQHGTQQQDLNKKERRVGTPQSTKKKKESRRATESRIPVSKSQPVTPEKHRARKRQAWLWEEDKNLRSGVRKYGEGNWSKILLHYKFNNRTSVMLKDRWRTMKKLKLIDDDDED
chain 2: MATPLVAGPAALRFAAAASWQVVRGRCVEHFPRVLEFLRSLRAVAPGLVRYRHHERLCMGLKAKVVVELILQGRPWAQVLKALNHHFPESGPIVRDPKATKQDLRKILEAQETFYQQVKQLSEAPVDLASKLQELEQEYGEPFLAAMEKLLFEYLCQLEKALPTPQAQQLQDVLSWMQPGVSITSSLAWRQYGVDMGWLLPECSVTDSVNLAEPMEQNPPQQQRLALHNPLPKAKPGTHLPQGPSSRTHPEPLAGRHFNLAPLGRRRVQSQWASTRGGHKERPTVMLFPFRNLGSPTQVISKPESKEEHAIYTADLAMGTRAASTGKSKSPCQTLGGRALKENPVDLPATEQKENCLDCYMDPLRLSLLPPRARKPVCPPSLCSSVITIGDLVLDSDEEENGQGEGKESLENYQKTKFDTLIPTLCEYLPPSGHGAIPVSSCDCRDSSRPL
chain 3: MAGSGRLVLRPWIRELILGSETPSSPRAGQLLEVLQDAEAAVAGPSHAPDTSDVGATLLVSDGTHSVRCLVTREALDTSDWEEKEFGFRGTEGRLLLLQDCGVHVQVAEGGAPAEFYLQVDRFSLLPTEQPRLRVPGCNQDLDVQKKLYDCLEEHLSESTSSNAGLSLSQLLDEMREDQEHQGALVCLAESCLTLEGPCTAPPVTHWAASRCKATGEAVYTVPSSMLCISENDQLILSSLGPCQRTQGPELPPPDPALQDLSLTLIASPPSSPSSSGTPALPGHMSSEESGTSISLLPALSLAAPDPGQRSSSQPSPAICSAPATLTPRSPHASRTPSSPLQSCTPSLSPRSHVPSPHQALVTRPQKPSLEFKEFVGLPCKNRPPFPRTGATRGAQEPCSVWEPPKRHRDGSAFQYEYEPPCTSLCARVQAVRLPPQLMAWALHFLMDAQPGSEPTPM
B2: TRF1, P54274 1-439 (natural protein)
chain: B1 chain 1 with D434S, D435S, D437S
modifications: here or on the partner: phosphoserine at 434, 435 and 437 (likely by endogenous insect cell kinases; S435 phosphorylated in 87.3% of the identified peptides); phosphoserine at 434, 435 and 437 (likely by endogenous insect cell kinases; S435 phosphorylated in 87.3% of the identified peptides)
B3: wild-type MBP-tagged TRF1core (TRF1-TIN2-TPP1), P54274;Q9BSI4 L384A; W385A; K389A (protein)
chain 1: AEDVSSAAPSPRGCADGRDADPTEEQMAETERNDEEQFECQELLECQVQVGAPEEEEEEEEDAGLVAEAEAVAAGWMLDFLCLSLCRAFRDGRSEDFRRTRNSAEAIIHGLSSLTACQLRTIYICQFLTRIAAGKTLDAQFENDERITPLESALMIWGSIEKEHDKLHEEIQNLIKIQAIAVCMENGNFKEAEEVFERIFGDPNSHMPFKSKLLMIISQKDTFHSFFQHFSYNHMMEKIKSYVNYVLSEKSSTFLMKAAAKVVESKRTRTITSQDKPSGNDVEMETEANLDTRKSVSDKQSAVTESSEGTVSLLRSHKNLFLSKLQHGTQQQDLNKKERRVGTPQSTKKKKESRRATESRIPVSKSQPVTPEKHRARKRQAWAAEEDANLRSGVRKYGEGNWSKILLHYKFNNRTSVMLKDRWRTMKKLKLISSDSED
chain 2: B1 chain 2
chain 3: B1 chain 3

How the values were obtained:
[1] = target: human telomeric nucleosome core particle (teloNCP), P68431;P62805;P04908;P06899; experiment: EMSA; conditions: chain shown with the change, triplicate; for response: read off a plot; for EC50: titration 0, 23, 36, 55, 85, 130, 200 nM TRF1core against teloNCP
TRF1 (human), P54274 = target: T1, TRF1 (human), P54274; experiment: native MS; purified TRF1core (co-expressed in Sf9, co-purified through MBP on TIN2) at 20 uM, dialysed into 750 mM ammonium acetate pH 8.0, 1 mM DTT; conditions: remark: other sources report otherwise
T1 chain: B1 chain 1 with D434S, D435S, D437S

[2] = point at 55 nM TRF1core, parent: est. 79

Binder | response [1, 2] [% Bound] | EC50 [1] [nM] | stoichiometry N (TRF1 (human), P54274) | response ([1]; point at 200 nM TRF1core, parent: est. 100) [% Bound]
B1 | 91 | 30.3 |  | 
B2 |  |  | 2 | 
B3 | 68 | 42.4 |  | 97
